Source: the supplement of paper PMC9170038

System: K4 kissing-loop RNA reporter
Assay: apparent KD of K4 kissing-loop reporter; higher = weaker reporter binding
Conditions: Eterna round: R107
Experimental: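 RNA-MaP round R107: designed RNA switches with theophylline, tryptophan, arginine or FMN aptamers are transcribed on-chip within common flanks. They are titrated with a labelled K4 kissing-loop RNA reporter in RNA-MaP buffer (100 mM Tris pH 7.5, 80 mM KCl, 4 mM MgCl2), without ligand or with the indicated ligand. Median apparent KD per design.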

[1] = input ligand: theophylline 20 uM
[2] = input ligand: tryptophan 2.4 mM
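Note: bound reporter read as fluorescence of individual clusters on recovered sequencing chips by microscopy, with normalized cluster intensities fitted with a binding model.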

| Sequence | apparent KD of K4 kissing-loop reporter (input ligand: FMN 200 uM) [nM] | apparent KD of K4 kissing-loop reporter (input ligand: arginine 13.2 mM) [nM] | apparent KD of K4 kissing-loop reporter (input ligand: none) [nM] | apparent KD of K4 kissing-loop reporter [1] [nM] | apparent KD of K4 kissing-loop reporter [2] [nM] |
| --- | --- | --- | --- | --- | --- |
| UGUCAUUGGUCUGAUACCAGUUGAUAAACUGGAGUGAUGUUCCAAUCGAGAUAACUCGACAACCCUUGGCAGCAGACCGAUGACU [TheoBS 15 #SwitchBubble 13 #StaticStem] | 182 | 173 | 176 | 128 | 168 |
| UAGUCCUAGUGAUCCUUAUCAAGUGGUGGGCGAGGACCGGUACGGCCGCCACUCGAAUAUGCAGUGAUGUUGUAAUCCGGACAAU [Exclusion - Tryptophan A (Freestyle 11)] | 897 | 906 | 852 | 899 | 580 |
| AUAAAUAAUAAUGACUGAGAGUUUGGUGAGCGAGGACCGGUACGGCCGCCACUCGUACAUGAGUGAUGUUCUUGUAUGAGUCAGA [KL-XTryp-A6 #analogue] | 127 | 97.6 | 95.6 | 97.6 | 105 |
| AAUAUAGUGAUGUUAUAUAAGAAGGAGUUACGAGGACCGGUACGGCCGCCACUCGAAACGAGUGAUGAUUUGGGAGAUUGGGUUG [SSTryptA.N] | 484 | 347 | 489 | 433 | 370 |
| GCUACCUAGGCAGGAUAUCGUAUUGAGUGAUGUUCAAUAACGGUCUACCAAAGGUAGACCGACCUUCGAGAAGGGCCUAGGUAGC | 143 | 163 | 193 | 174 | 166 |
| CCGCCAUCAUCAGAUACCAGGCUGAUGGCGGUAACCGCCAAGCGAGUGAUGUUCGCAUCAGUCCCUUGGCAGCUGAUGAAGACUG [#15 K4 Theophylline B Same State] | 194 | 94.3 | 146 | 155 | 95.2 |
| ACGCGCGCGAGUGAUGUUCGGAGCGGCUGGCAGGAUAUGGAGCAAUCCAGAAGGGUCGUGGCUGCUGGUAGGAAACUACUGGCAG [#2 Exclusion - FMN A Attempt #3 (HarryS)] | 135 | 239 | 350 | 330 | 299 |
| GUAGUGAUGUUACGAGUAUUCCAUCGUAGAGAGGAUAUGGUUCCUUCCAGAAGGUUCUGAGAAUUAAAAUUUGAUAAAAUGAGGG [Exclusion FMN A GF 2] | 304 | 251 | 390 | 392 | 252 |
| GCAGUGAUGUUGCACGAGUACGGUAGAGUACGAGGACCGGUACGGCCGCCACUCGUACGGAACUGGCUAAUUUAUGGAAUGGUGA [II] | 383 | 463 | 1440 | 477 | 365 |
| AUUUUAGAGUGAUGUUCUAUUUGAUCAGAUACCAGACAAUUAUAAGUCCCUUGGCAGCUGUAGCCGAUAAAUUUAAUUAAUUUAA [JR_ExcTheophyA_Sub012] | 132 | 223 | 158 | 205 | 130 |
| GCGCGUCAUGUCAGCGGUGACACUGUCGAUACCAGCGCCGAAAGGCGCCCUUGGCAGCGACGUGCUGGAGUGAUGUUCCAGCGUC [#2 Exclusion - Theophylline A Attempt #24 (HarryS)] | 163 | 108 | 148 | 148 | 139 |
| GGCAUGGUGGCGCGGCUGCCAUGCGCUUGGGAGGAUAUGUUUCGUGACAGAAGGCCCAGUGAUGUUGGGUCUGUUCAAAAGGACU [Onrabe] | 447 | 149 | 133 | 137 | 113 |
| AUUCAUUUCAGAGGAUAUCGAAGGAGAGUGAUGUUCUCCCAUAGCCCAGUGAUGUUGGAAGCUAUUCGAGAAGGCUGUGGGUGGA [Same State FMN B GF 26] | 178 | 270 | 271 | 222 | 216 |
| AAGAAGGUCAAAGACCUUCGUGCACGUGAUACCAGUCGCGAAAGCGACCCUUGGCAGCACGGCAGUGAUGUUGCCAAGUGCACAA [#12 K4 Theophylline A Same State] | 407 | 249 | 498 | 664 | 545 |
| CGAGAGGUCUUGUUUGGAUGUGUUUUAUGGCGAGGACCGGUACGGCCGCCACUCGGGUGAUGUUAGUGAUGUUGAUGUAGUGAUG [dcdmullin] | 91.9 | 79.9 | 93.4 | 162 | 76.9 |
| AGUGAUGUUUUUUUUAAGAGUGAUGUUUUUCGAGGACCGGUACGGCCGCCACUCGAGUGAGGAGUGCGGUGGUGAGAUGUUGAGU [oomullin] | 549 | 466 | 677 | 589 | 519 |
| AUGCGUUGCACGGCCGCCACUGAUAUUAUGCUUCAGGAUGCUUCUGAAAGUGAUGUUUUCAGAUCCAGGACCGGGUGCCAAGAUU [theeternabot_sameState_KL_Trp_B_17] | 104 | 88.2 | 98.3 | 92.3 | 98.8 |
| CCUGCAGCUGUAACCGAGUGAUGAUACGGACGAGGACCGGUACGGCCGCCACUCGCCAGUGAUGUUGGUGUGGGAGGACGUAACU [KL-XTryp-A23] | 241 | 177 | 237 | 256 | 221 |
| CCAUCGCUAUUCGAUACCAGCUCCUUAGUGAUGUUGAGGUUUUACCCACUGUAGGUGGGAAGCCCUUGGCAGCGAAUAGUGAUGG [Theophylline B K4 29] | 523 | 217 | 430 | 480 | 816 |
| UGAUAAAGCAGUGAUGUUGCAAGAAAUGAUACCAGUUAAGAAAAGAACCCUUGGCAGCAUAAAGUGCGCUCUAAUGAGUGUGCUU [theophylline a same state] | 141 | 183 | 156 | 231 | 126 |
| UGGGAUGUUAAAGGAUAUAGAAAGUGAUAUUAGAAAGUGAGUGAUGUUGAUGUAGGUGAUGAUAUGUUAGAAGGUUAACAAAACG [abcde] | 411 | 219 | 334 | 303 | 292 |
